Data published in the supplement of paper PMC10126150.
± gives the standard deviation of the averaged measurements.

Tested on: ATP
Assay: switch fluorescence ratio, 500 uM ATP over buffer (Cy3 cluster intensity, sum of 5 cycles each) (fold (ratio)); higher = stronger signal-on switching upon ATP binding; sequences stand for … in TCGTCGGCAGCGTCAGATGTGTATAAGAGACAGTTTTTTTTTTTTTTTTTTTTTTTTT…TC
Conditions: aptamer strand: ATP DNA aptamer (quencher-CACCTGGGGGAGTATTGCGGAGGAAGG + anchor), 100 nM annealed; ATP concentration: 500 uM
Method in brief: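 The quencher-labelled ATP aptamer, at 100 nM, was annealed to Cy3-labelled switching-strand clusters on a modified Illumina MiSeq flow-cell. The clusters were imaged in selection buffer, then after 15 min with 500 uM ATP at 22 °C, and this buffer/ATP cycle ran five times with NaOH stripping and re-annealing between runs. Per-cluster fluorescence ratios, summed target-cycle over summed buffer-cycle Cy3 intensity, were averaged per switch-domain sequence. Clusters outside 100-1000 RFU were excluded.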
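Further: ATP exposure 15 min at 22 °C before imaging.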

Sequence	switch fluorescence ratio
GAACTCTACT	1.14 ± 0.044
GAACTGGGGC	0.942 ± 0.076
GAAGAAAACT	1.08 ± 0.014
GAAGAACGAA	1.022 ± 0.004
GAAGACAGCG	1.07 ± 0.024
GAAGAGAGGG	1.016 ± 0.0092
GAAGAGAGGT	0.9901 ± 0.0037
GAAGAGGAGG	1.04 ± 0.011
GAAGAGGGGG	0.991 ± 0.043
GAAGAGTCGT	0.992 ± 0.064
GAAGATGTAG	0.9558 ± 0.0033
GAAGATTGGT	0.981 ± 0.028
GAAGCACGCC	1.45 ± 0.0069
GAAGCCGGGG	0.9839 ± 0.0083
GAAGCGTTTG	0.98 ± 0.039
GAAGGAGTGC	1.07 ± 0.018
GAAGGAGTGG	1.027 ± 0.01
GAAGGCAGTC	1.13 ± 0.04
GAAGGCAGTG	1 ± 0.011
GAAGGCGTTT	0.9778 ± 0.0032
GAAGGGAATG	1.01 ± 0.017
GAAGGGACGT	1.07 ± 0.026
GAAGGGCATA	1.02 ± 0.019
GAAGGGCATC	0.989 ± 0.043
GAAGGGCGGA	1.018 ± 0.0045

Sequence	switch fluorescence ratio
GAAGGGCTGT	0.993 ± 0.029
GAAGGGGTCA	0.9904 ± 0.0089
GAAGGGTAAC	1.03 ± 0.018
GAAGGTATTG	0.977 ± 0.013
GAAGGTCCAC	1.017 ± 0.0078
GAAGGTGGCT	1.01 ± 0.026
GAAGTAGCGA	1.05 ± 0.015
GAAGTAGGAG	1.01 ± 0.032
GAAGTCCAGA	1.01 ± 0.07
GAAGTCCGGG	0.9871 ± 0.0048
GAAGTCTTAA	1 ± 0.033
GAAGTGAGTT	1 ± 0.018
GAAGTGATGG	1.135 ± 0.008
GAAGTGGCTT	0.9801 ± 0.0014
GAAGTGGGTT	0.989 ± 0.024
GAAGTTCAGG	1.03 ± 0.018
GAAGTTTGTA	0.992 ± 0.022
GAATAAAAAC	1.01 ± 0.013
GAATAAAAGC	0.9901 ± 0.0063
GAATAAAATA	1.02 ± 0.039
GAATAGGTTA	0.983 ± 0.026
GAATAGTCAG	0.978 ± 0.033
GAATATCAAG	0.9871 ± 0.0064
GAATATGCCG	0.972 ± 0.019
GAATATGGGT	0.995 ± 0.015

Sequence	switch fluorescence ratio
GAATCGATTT	1.02 ± 0.027
GAATCGTTTT	0.9553 ± 0.0068
GAATGAAAAT	0.997 ± 0.022
GAATGAACCA	0.998 ± 0.049
GAATGACAGT	0.978 ± 0.018
GAATGACCGT	1.01 ± 0.024
GAATGACGGA	1.02 ± 0.057
GAATGATGGC	0.939 ± 0.065
GAATGCAAAG	1.03 ± 0.041
GAATGGGATG	1.002 ± 0.0023
GAATGGGGGC	0.98 ± 0.036
GAATGGGGGT	0.982 ± 0.02
GAATGGGTGA	0.983 ± 0.028
GAATGGTCCC	1.02 ± 0.012
GAATGGTGGG	0.988 ± 0.019
GAATGTCGGG	0.97965 ± 8.2e-05
GAATTAAGCT	1 ± 0.015
GAATTAATGG	1.02 ± 0.07
GAATTAATTT	1 ± 0.04
GAATTAGTTA	1.01 ± 0.02
GAATTATTGG	0.975 ± 0.022
GAATTCAAGG	1.01 ± 0.082
GAATTCCGTA	1.03 ± 0.042
GAATTCGGGA	1 ± 0.013
GAATTCTATG	0.997 ± 0.042

Sequence	switch fluorescence ratio
GAATTCTTGA	0.9532 ± 0.0043
GAATTGATTT	1.009 ± 0.0065
GAATTGGGTA	0.957 ± 0.014
GAATTGTACC	1.03 ± 0.028
GAATTGTTAG	0.972 ± 0.028
GAATTTAAAG	1.007 ± 0.0018
GAATTTCGGT	1.053 ± 0.0077
GAATTTGGGT	0.98 ± 0.034
GAATTTTGTA	0.984 ± 0.041
GACAAAGGAC	1.47 ± 0.09
GACAAAGGAT	1.04 ± 0.025
GACAACAAGG	1.047 ± 0.0089
GACAAGGAGG	1.02 ± 0.028
GACAAGTATT	1.01 ± 0.013
GACAATTAGT	1.04 ± 0.0079
GACACTAAGG	1.01 ± 0.038
GACACTTAGG	1.05 ± 0.017
GACACTTGTA	1.02 ± 0.025
GACAGCGGGG	0.999 ± 0.036
GACAGGGATC	2.1 ± 1.6
GACAGGGGCT	1.06 ± 0.022
GACAGGGGGG	1.01 ± 0.085
GACAGGTGAA	2.27 ± 0.041
GACAGGTTAG	0.9809 ± 0.0069
GACAGGTTGA	0.993 ± 0.036
